# Values quoted from earlier work in paper PMC9464622, “The collectin SP-A and its trimeric recombinant fragment protect alveolar epithelial cells from the cytotoxic and proinflammatory effects of human cathelicidin in vitro” (Frontiers in Immunology, 2022).
# Test system: LL-37 and β-defensin 3
# Text: The host appears to protect its own cells from LL-37 cytotoxicity by several mechanisms. […] In addition, the C1q globular head receptor (gC1qR, also known as p33) protects ...
molecule,measurement,value
"p33: negatively charged protein expressed on the surface of various cell types (protein, UniProt Q07021 74-282, looked up) Complement component 1 Q …: LHTDGDKAFVDFLSDEIKEERKIQKHKTLPKMSGGWELELNGTEAKLVRKVAGEKITVTFNINNSIPPTFDGEEEPSQGQKVEEQEPELTSTPNFVVEVIKNDDGKKALVLDCHYPEDEVGQEDEAESDIFSIREVSFQSTGESEWKDTNYTLNTDSLDWALYDHLMDFLADRGVDNTFADELVELSTALEHQEYITFLEDLKSFVKSQ",binding of LL-37 and β-defensin 3,binds LL-37 and β-defensin 3 with high affinity
